The source of these data is patent US20260250420A1 (SICHUAN KELUN BIOTECH BIOPHARMACEUTICAL, published 2026).

The labels stand for the following.
T1: human PTK7 on cells (tumor cells endogenously expressing PTK7); CHO-hPTK7, CHO-S-hPTK7 and 293T-hPTK7 … (human, UniProt Q13308 31-1070)
T1 construct: whole, on cells; The cell line of each value is named under assay; also called H1299; H358
T1 sequence (looked up): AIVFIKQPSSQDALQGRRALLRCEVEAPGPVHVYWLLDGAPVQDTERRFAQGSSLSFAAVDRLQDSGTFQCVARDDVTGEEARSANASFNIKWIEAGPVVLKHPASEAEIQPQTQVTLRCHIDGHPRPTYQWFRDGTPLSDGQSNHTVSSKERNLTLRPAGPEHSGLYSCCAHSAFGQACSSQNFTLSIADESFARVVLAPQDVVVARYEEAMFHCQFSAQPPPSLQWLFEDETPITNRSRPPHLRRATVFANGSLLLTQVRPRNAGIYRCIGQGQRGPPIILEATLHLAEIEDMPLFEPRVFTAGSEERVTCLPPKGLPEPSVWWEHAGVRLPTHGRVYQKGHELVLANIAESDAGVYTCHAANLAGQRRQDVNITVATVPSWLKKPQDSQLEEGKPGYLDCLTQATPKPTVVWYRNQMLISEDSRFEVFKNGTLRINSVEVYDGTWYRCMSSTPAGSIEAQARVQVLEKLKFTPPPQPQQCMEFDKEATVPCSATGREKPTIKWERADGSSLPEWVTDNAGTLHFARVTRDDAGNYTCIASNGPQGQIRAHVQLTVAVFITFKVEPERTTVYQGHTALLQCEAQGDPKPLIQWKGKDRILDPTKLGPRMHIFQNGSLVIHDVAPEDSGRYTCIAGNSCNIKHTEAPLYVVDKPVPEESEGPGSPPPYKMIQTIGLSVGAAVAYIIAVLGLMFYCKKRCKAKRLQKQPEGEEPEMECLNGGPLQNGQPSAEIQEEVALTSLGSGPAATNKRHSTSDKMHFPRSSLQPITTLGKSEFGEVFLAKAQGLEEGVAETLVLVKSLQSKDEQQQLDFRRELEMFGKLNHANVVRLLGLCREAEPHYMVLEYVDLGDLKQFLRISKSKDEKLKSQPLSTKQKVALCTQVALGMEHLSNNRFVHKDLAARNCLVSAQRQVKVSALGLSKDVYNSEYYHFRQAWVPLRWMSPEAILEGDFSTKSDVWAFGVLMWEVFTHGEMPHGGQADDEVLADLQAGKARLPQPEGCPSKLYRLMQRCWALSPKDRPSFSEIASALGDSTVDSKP

T2: human PTK7 protein (extracellular sequence of human PTK7 with C-terminal 6×His tag) (human, UniProt Q13308 31-704)
T2 construct: extracellular domain; Expressed transiently in HEK293 cells; also called human PTK7-His; human PTK7-His protein
T2 sequence: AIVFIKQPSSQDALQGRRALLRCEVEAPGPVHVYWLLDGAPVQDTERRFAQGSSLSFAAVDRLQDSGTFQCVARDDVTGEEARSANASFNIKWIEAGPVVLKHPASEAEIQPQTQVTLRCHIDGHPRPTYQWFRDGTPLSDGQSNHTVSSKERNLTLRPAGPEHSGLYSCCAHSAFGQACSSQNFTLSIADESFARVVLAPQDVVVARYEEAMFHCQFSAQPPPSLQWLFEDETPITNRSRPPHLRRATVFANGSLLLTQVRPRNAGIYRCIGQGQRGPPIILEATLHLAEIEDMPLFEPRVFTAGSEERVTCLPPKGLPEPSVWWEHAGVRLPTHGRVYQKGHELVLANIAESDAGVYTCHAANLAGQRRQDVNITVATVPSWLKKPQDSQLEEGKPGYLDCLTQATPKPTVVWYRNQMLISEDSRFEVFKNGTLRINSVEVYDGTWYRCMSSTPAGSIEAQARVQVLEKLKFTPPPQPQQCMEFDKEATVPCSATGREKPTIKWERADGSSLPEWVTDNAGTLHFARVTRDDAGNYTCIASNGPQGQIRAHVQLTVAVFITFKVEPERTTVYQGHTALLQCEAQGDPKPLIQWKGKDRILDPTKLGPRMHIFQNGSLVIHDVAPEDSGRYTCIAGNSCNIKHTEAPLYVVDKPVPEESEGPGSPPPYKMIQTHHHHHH

T3: monkey PTK7 protein (extracellular sequence of monkey PTK7 with C-terminal 6×His tag) (monkey)
T3 chain: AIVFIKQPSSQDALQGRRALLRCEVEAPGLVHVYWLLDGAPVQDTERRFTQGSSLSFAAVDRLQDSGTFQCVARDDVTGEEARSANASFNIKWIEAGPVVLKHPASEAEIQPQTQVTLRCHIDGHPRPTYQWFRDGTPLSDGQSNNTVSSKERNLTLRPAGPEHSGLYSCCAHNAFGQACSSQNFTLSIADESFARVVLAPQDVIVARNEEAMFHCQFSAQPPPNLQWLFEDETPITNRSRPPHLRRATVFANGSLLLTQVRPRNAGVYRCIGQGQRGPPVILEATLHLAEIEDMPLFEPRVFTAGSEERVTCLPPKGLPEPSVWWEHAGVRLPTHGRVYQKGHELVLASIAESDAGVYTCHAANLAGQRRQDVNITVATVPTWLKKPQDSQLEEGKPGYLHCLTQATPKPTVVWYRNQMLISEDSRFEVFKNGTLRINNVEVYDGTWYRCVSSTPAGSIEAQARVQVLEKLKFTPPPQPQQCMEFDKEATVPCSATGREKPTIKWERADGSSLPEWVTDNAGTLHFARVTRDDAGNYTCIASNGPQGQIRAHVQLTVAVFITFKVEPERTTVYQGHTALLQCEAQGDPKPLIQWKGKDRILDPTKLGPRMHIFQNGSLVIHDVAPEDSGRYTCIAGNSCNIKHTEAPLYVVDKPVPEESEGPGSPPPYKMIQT

B1: 101A6-CH (anti-human PTK7 chimeric antibody of 101A6) (antibody, human IgG1, kappa, V domains shown)
VH: EVKLVESGGGLVQPGGSLSLSCAASGFTFTDYYLSWVRQPPGKALEWLALIRNKANGYTTEYSASVKGRFTISRDSSQSILYLQMDALRAEDSATYYCARDTLAAYWGQGTSVTVSS
VL: DIVMTQSHKFMSTSVGDRVSFTCKASQDVGSAVIWYQQKPGQSPKLLIYWASTRHTGVPDRFTGSGSGTDFTLTISNVQSEDLADYFCQQYSSYPLTFGAGTKLEIKR
notes: The label '-CH' is not defined in words
B2: 64A10-CH (anti-human PTK7 chimeric antibody of 64A10) (antibody, human IgG1, kappa, V domains shown)
VH: QVQLKESGPVLVAPSQSLSITCTVSGFSLTSYGVYWVRQPPGKGPEWLGVIWTSGNTNYNSALMSRLSISKDNSKSQVFLKMNSLQTDDTAMYYCVKHDGGNYVGVMNYWGQGTSVTVSS
VL: DIQMTQSPATLSVTPGDRVSLSCRASQSISDYLHWYQQKSQESPRLLIKYASQSISGIPSRFSGSGSGSDFTLSINSVEPEDVGVYYCQNGHSFPPTFGGGTKLEIKR
notes: as for B1
B3: 4B12 (anti-human PTK7 murine antibody) (antibody, V domains shown)
VH: QVTLKESGPGILKPAQTLSLTCSFSGFSLSTSGMGVGWIRQPSGKGLEWLAHIWWDDDKHYNPSLKSRLTISKDASRNQVFLRISSVDTADTATYYCVRSNYGYDWFAYWGQGTLVTVSA
VL: DIKMTQSPSSMYVSLGERVTITCKASQDINTYLGWFQQKPGKSPKTLIYRANRLVDGVPSRFSGSGSGQDYSLTISSLEYEDMEIYYCLQYDEFPLTFGAGTKLEIK
notes: Murine antibody purified from hybridoma supernatant on Protein A
B4: 4E12 (anti-human PTK7 murine antibody) (antibody, V domains shown)
VH: QVQLQQSGAELMRPGVSVKISCKGSGYTFTDYAMHWVKQNHAKSLEWIGVISTYYGNVSYNQKFKGKATMTVDKSSSTAYMELARLTSEDSAIYYCARGFAYWGQGTLVTVSA
VL: DIVITQDELSNLVTSGESVSISCRSSKSLQKKDGKTYLNWFLQRPGQSPQLLIYLMSTRASGVSDRFSGSGSGTDFTLEISRVKAEDVGVYYCQQLVEYPFTFGSGTKLEIK
notes: as for B3
B5: 19C2 (anti-human PTK7 murine antibody) (antibody, V domains shown)
VH: QVTLKESGPGILKPSQTLSLTCSFSGFSLTTSGMGINWIRQPSGKGLEWLALIWWDDDKYYNPSLKNRLTVSKDPSRNQVFLTITSVDTTDSATYYCARSLITTAPSDYWGQGTSVTVSS
VL: DIVMTQSQKFMSTSVGDRVSITCKASQNVGTAITWYQQRPGQSPQLLIYSASNRYTGVPDRFTGSGSGTDFTLTISNLQSEDLADYFCLQYSDYPLTFGAGTNLELK
notes: as for B3
B6: 101A6 (anti-human PTK7 murine antibody) (antibody, V domains shown)
VH: B1 VH
VL: DIVMTQSHKFMSTSVGDRVSFTCKASQDVGSAVIWYQQKPGQSPKLLIYWASTRHTGVPDRFTGSGSGTDFTLTISNVQSEDLADYFCQQYSSYPLTFGAGTKLEIK
notes: as for B3
B7: 8H3 (anti-human PTK7 murine antibody) (antibody, V domains shown)
VH: B1 VH with L34M, S76N, D86N, T102S, L103F, A104E, A105V, S112L, S117A
VL: B6 VL with M4L, S20N, F21I, S31T, I34A, S76R, Y91F, Y94F, L96F, A100G
notes: as for B3
B8: 57F4 (anti-human PTK7 murine antibody) (antibody, V domains shown)
VH: EVQLVESGGGLVKPGGSRKLSCAASGFTFSDYGMHWVRQAPEKGLEWVAYISSGSSALYYADTVKGRFTISRDNVKNTLFLQMTSLRSEDTAMYYCARRSYYSYFAYWGQGTLVTVSA
VL: QIVLTQSPALMAASPGEKVTITCRVSSSISSSTLHWYQQKSETSPKPWIYGTSNLASGVPVRFSGSGSGTSYSLTISSMEAEDAATYYCQQWSSFPFTFGSGTKLEIK
notes: as for B3
B9: 64A10 (anti-human PTK7 murine antibody) (antibody, V domains shown)
VH: B2 VH
VL: DIQMTQSPATLSVTPGDRVSLSCRASQSISDYLHWYQQKSQESPRLLIKYASQSISGIPSRFSGSGSGSDFTLSINSVEPEDVGVYYCQNGHSFPPTFGGGTKLEIK
notes: as for B3

Positions count from the first letter of the chain named.

One assay deals with T1, human PTK7 on cells (tumor cells …). In words: flow cytometry on H1299 cells. An excerpt: A flow cytometer (Beckman, Cytoflex) was used for detecting the affinity of the anti-human PTK7 chimeric and humanized antibodies with human non-small cell lung cancer cells H1299, human lung adenocarcinoma cells H1975, human breast cancer cells T47D, human ovarian cancer cells OVCAR-3 (all purchased from NANJING COBIOER BIOSCIENCES CO., LTD) and CHO-hPTK7 overexpression cells.
The adherent cells were digested by using a pancreatin (Gibco) solution; a proper amount of cells were counted and taken, washed twice by using 1×PBS, and re-suspended in a 1% BSA solution; and then the cells were transferred into a 96-well deep plate at a density of 50 μl/well; a candidate antibody was diluted by using 1% BSA, then 50 μl of diluted antibody was added into the deep plate containing the cells, and incubated for 40 min at 4° C.; the cells were washed twice by using PBS, then 50 μl of diluted secondary antibody was added into each well, uniformly mixed, and incubated for 30 min at 4° C.; and the cells were washed twice by using PBS, then re-suspended in 400 μl of PBS, and subjected to examination by flow cytometer.
For orientation: Flow cytometry measures light scatter and fluorescence of single cells or particles in a stream.
A word on the EC50: it is the concentration needed to bring the measured effect to its halfway point. The molecule B1 had an EC50 of 0.158 µg/mL.

The molecule B2 yielded an EC50 of 0.355 µg/mL.

The next assay has the same target. In words: flow cytometry on H358 cells endogenously expressing PTK7.
Regarding B3, the concentration for a half-maximal effect (EC50) was found to be 0.0441 µg/mL.

B4: the response was half-maximal at 0.035 µg/mL (EC50).

B5 registered an EC50 of 0.0583 µg/mL.

The target in a further assay is T2, human PTK7 protein (extracellular …). In words: ELISA, coated human PTK7-His protein 1 µg/ml. The protocol:
The original data was imported into software for nonlinear curve fitting, and the EC₅₀ of binding of each antibody to the human PTK7 was calculated, respectively.
A general note: ELISA stands for enzyme-linked immunosorbent assay.
B1 came in with an EC50 of 0.0316 µg/mL.

The molecule B2 returned a concentration giving a half-maximal response (EC50) of 0.0258 µg/mL.

The target in the next assay is T3, monkey PTK7 protein (extracellular …). Briefly: ELISA, coated monkey PTK7 protein 1 µg/ml. The method, then: (§1) Original data was imported into software for nonlinear curve fitting, and EC₅₀ of binding of each antibody to human PTK7 and monkey PTK7 was calculated, respectively. As shown in Table 1 and FIGS. 1A-1B, the screened antibodies could be bound to the human and monkey PTK7 proteins with affinity higher than that of the control antibody Hu24.
As for B6, the EC50 turned out to be 0.0187 µg/mL.

The molecule B7 registered a concentration for a half-maximal effect (EC50) of 0.0168 µg/mL.

In the case of B8, the EC50 is 0.0158 µg/mL.

Regarding B9, the EC50 is 0.00765 µg/mL.

For the next assay, the target named is T2, human PTK7 protein (extracellular …). In words: ELISA, coated human PTK7 protein 1 µg/ml. The protocol:
as §1
B6 returned a concentration for a half-maximal effect (EC50) of 0.0131 µg/mL.

As for B7, a half-maximal effect (EC50) was put at 0.0113 µg/mL.

In turn, B8 returned an EC50 of 0.0218 µg/mL.

Regarding B9, the EC50 was 0.0132 µg/mL.

The target of a further assay is T1, human PTK7 on cells (tumor cells …). In words: flow cytometry on H1299 cells endogenously expressing PTK7.
In the case of B6, the EC50 stood at 0.245 µg/mL.

For B7, the response was half-maximal at 0.21 µg/mL (EC50).

For the molecule B8, it took 0.0875 µg/mL to reach a half-maximal effect (EC50).
